Results published in patent publication US20220194997A1, “SUMO PEPTIDES FOR TREATING NEURODEGENERATIVE DISEASES” (The Chinese University of Hong Kong, priority 2019, published 2022).

Target: SUMO1(15-55) (human)
Test: MST (FIG. 11b)

SUMO1(15-55) (human), sequence (peptide, as listed by the source limits assumed): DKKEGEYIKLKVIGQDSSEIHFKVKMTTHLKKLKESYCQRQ

- binding ability relative to the sole β1, β2-strand peptides (fold of the sole β1, β2-strand peptides): 0.037
Substance: αsyn(33-58) (peptide)
